# Laboratory results taken from US20150315569A1, “METHOD FOR SCREENING A NUCLEIC ACID-PROGRAMMED SMALL MOLECULE LIBRARY” (The Board of Trustees of the Leland Stanford Junior …, priority 2014, published 2015).
# Legend:
# protein kinase A = target: T1, protein kinase A (Mus musculus, UniProt P05132); test: Selection for protein kinase A substrates from the DNA-programmed peptide library; gene/peptide enrichment by Illumina sequencing; type: biochemical, murine; conditions: for LTFE: In (total fold enrichment) after four rounds: after four rounds of PKA substrate selection, kinase-treated vs control population; for Rank: position on list of peptides ranked by fold enrichment: calculated by summing reads over the 1296 genes encoding each peptide, peptide-DNA conjugates
# T1 construct: purchased New England Biolabs P6000L
# Experimental: Programmed library synthesis was carried out by a series of DNA-directed library splitting steps followed by chemical coupling steps. For the splitting steps, the ssDNA library was hybridized to an anticodon array overnight at 37° C. using a mesofluidic hybridization pump (see, e.g., Weisinger et al. (2012) PLoS ONE, 7, e28056). The anticodon array with bound DNA was then mounted into a plate adapter device which uses rubber gaskets to form an isolated liquid channel above and below each array feature. The adapter device was placed on top of a 384-well polypropylene filterplate loaded with 5 μl aliquots of DEAE sepharose resin. DNA was eluted from each feature of the anticodon array onto the DEAE resin in the corresponding well of the filterplate by application of a denaturing buffer (10 mM NaOH with 1 mM EDTA and 0.005% Triton X-100) followed by gentle centrifugation of the stack (140×g for 1 minute). The DEAE resin in the filter plate was then washed three times with 85 μl H2O and three times with 85 μl dry methanol. Peptide couplings were performed using EDC and HOAt in methanol and DMF (see, e.g., Halpin et al., (2004) PLoS Biology, 2, E174). Following the synthetic steps, the filterplate was placed on top of a 384-well polypropylene microtiter plate, and DNA was eluted from the DEAE resin by application of a high salt buffer (1.5 M NaCl, 50 mM NaOH, 1 mM EDTA, and 0.005% Triton X-100) followed by gentle centrifugation. The eluted DNA was pooled, concentrated and buffer exchanged into hybridization buffer using a centrifugal filter device with a 10,000 Da molecular weight cut-off (GE Healthcare). BSA and tRNA were added to 0.5 mg/ml each. The sample was diluted to 3 ml with hybridization buffer and applied to another anticodon array. Following the final step of the chemical synthesis, the eluted DNA was split by hybridization for 3 hours at 37° C. to a pair of anticodon columns derivatized with the VE001 and VE002 anticodon sequences. The two halves of the library were concentrated with n-butanol extractions, precipitated with isopropanol, and subjected to kinase-substrate/mock selections respectively.
# Translated libraries were incubated in PKA buffer (NEB) overnight at 30° C. with 10,000 units of protein kinase A and 1 mM ATPγS. For the selection between the third and fourth generations, the incubation was shortened to 1 hour at 30° C. Mock selections were performed identically, with the enzyme replaced by a 50% glycerol solution. After incubation, the crude reactions were diluted 1.5-fold and adjusted to 100 mM NaOAc pH 5.2 and 25% dimethyl formamide. EZ-Link iodoacetyl-LC-biotin (Pierce Thermo Fisher Scientific, catalog #21333) was added to 600 μM. After 3 hours in the dark at 25° C., the enzyme-treated library was cleaned up by extraction with phenol: chloroform and n-butanol, and then precipitation with isopropanol. The library was resuspended in 27.5 μl bind buffer (10 mM Tris pH 7.4, 1 mM EDTA, 1 M NaCl), and 1.25 mg/ml tRNA and 0.25 mg/ml BSA were added. The library was then incubated with 15 μl of μMACS streptavidin microbeads (MiltenyiBiotec, 130-074-101) overnight at room temperature. The microbeads were purified and washed over MACS columns according to the manufacturer's instructions, and the purification process was repeated a second time. DNA was amplified directly off of the streptavidin beads by PCR.
# 25 pmol of amplified DNA was used as a template in a PCR reaction that appended Illumina adaptor sequences. The PCR product was quantified on an Agilent 2100 Bioanalyzer, and a 10 nM solution was submitted to the Stanford Functional Genomics Facility for sequencing using custom primers. Paired-end 150-bp reads were obtained on a MiSeqIllumina Sequencer.
# The sequencing data were processed using scripts written in either AWK or MATLAB. […]
# [1] = tested on: T2, Kemptide heptapeptide LRRASLG (SEQ ID NO: 10)
# T2 sequence: LRRASLG
# RMSF (SEQ ID NO: 7) = tested on: T3, RMSF (SEQ ID NO: 7)
# T3 sequence: RMSF
# RRASL (SEQ ID NO: 3) = tested on: T4, RRASL (SEQ ID NO: 3)
# T4 sequence: RRASL
# RRFSV (SEQ ID NO: 4) = tested on: T5, RRFSV (SEQ ID NO: 4)
# T5 sequence: RRFSV
# RRMS (SEQ ID NO: 9) = tested on: T6, RRMS (SEQ ID NO: 9)
# T6 sequence: RRMS
# RRMSV (SEQ ID NO: 5) = tested on: T7, RRMSV (SEQ ID NO: 5)
# T7 sequence: RRMSV
# RRMTV (SEQ ID NO: 6) = tested on: T8, RRMTV (SEQ ID NO: 6)
# T8 sequence: RRMTV
# RRSF (SEQ ID NO: 8) = tested on: T9, RRSF (SEQ ID NO: 8)
# T9 sequence: RRSF
# RRSFV (SEQ ID NO: 2) = tested on: T10, RRSFV (SEQ ID NO: 2)
# T10 sequence: RRSFV
substance,measurement,setting,value
RRMTV,LTFE: In (total fold enrichment) after four rounds,protein kinase A,8.4
same,Rank: position on list of peptides ranked by fold enrichment,protein kinase A; fourth generation,95
RRFSV,LTFE: In (total fold enrichment) after four rounds,protein kinase A,10.2
same,Rank: position on list of peptides ranked by fold enrichment,protein kinase A; fourth generation,33
RRSFL,peptide enrichment in the fourth generation library (result in words),protein kinase A; reads of the 6^4 (1296) genes per peptide summed,most highly enriched peptide
RRASL (sythetic peptide),LTFE: In (total fold enrichment) after four rounds,protein kinase A,10.6
same,Rank: position on list of peptides ranked by fold enrichment,protein kinase A; fourth generation,20
catalytic subunit of murine cAMP-activated protein kinase A,Rel. kcat/Km (relative to Kemptide),[1],1
same,Rel. kcat/Km (relative to Kemptide),RMSF (SEQ ID NO: 7),0.0028
same,Rel. kcat/Km (relative to Kemptide),RRASL (SEQ ID NO: 3),0.27
same,Rel. kcat/Km (relative to Kemptide),RRFSV (SEQ ID NO: 4),4.1
same,Rel. kcat/Km (relative to Kemptide),RRMS (SEQ ID NO: 9),0.028
same,Rel. kcat/Km (relative to Kemptide),RRMSV (SEQ ID NO: 5),2.2
same,Rel. kcat/Km (relative to Kemptide),RRMTV (SEQ ID NO: 6),0.031
same,Rel. kcat/Km (relative to Kemptide),RRSF (SEQ ID NO: 8),0.05
same,Rel. kcat/Km (relative to Kemptide),RRSFV (SEQ ID NO: 2),0.16
RRMS,LTFE: In (total fold enrichment) after four rounds,protein kinase A,3.0
same,Rank: position on list of peptides ranked by fold enrichment,protein kinase A; fourth generation,1846
RRSF,LTFE: In (total fold enrichment) after four rounds,protein kinase A,6.3
same,Rank: position on list of peptides ranked by fold enrichment,protein kinase A; fourth generation,253
RMSF,LTFE: In (total fold enrichment) after four rounds,protein kinase A,7.6
same,Rank: position on list of peptides ranked by fold enrichment,protein kinase A; fourth generation,147
RRMSV,LTFE: In (total fold enrichment) after four rounds,protein kinase A,9.5
same,Rank: position on list of peptides ranked by fold enrichment,protein kinase A; fourth generation,51
RRSFV,LTFE: In (total fold enrichment) after four rounds,protein kinase A,11.1
same,Rank: position on list of peptides ranked by fold enrichment,protein kinase A; fourth generation,7
same,median enrichment of the genes encoding the peptide,"protein kinase A; fourth generation, single genes (one codon per amino acid model)","175,000 fold"
